Consider three proteins from article PMC4569737, “Involvement of a eukaryotic-like ubiquitin-related modifier in the proteasome pathway of the archaeon Sulfolobus acidocaldarius” (Nature Communications, 2015).

For orientation: stoichiometry N means the number of molecules, sites or subunits per partner or assembly.

Series [1] deals with the molecule itself. Nature of the series: SEC-MALS; 100 μl protein complex at 2 mg/ml, Superdex 200 10/300 Increase GL, 20 mM Tris (pH 8.0), 300 mM NaCl, 25 °C. In general terms: Size exclusion chromatography separates by hydrodynamic size, large species first.
Series [2] concerns the molecule itself. The series is described as follows: negative-stain transmission electron microscopy; purified 20S complexes at 0.035 mg/ml on carbon-coated grids, 2% uranyl acetate.

B1: Saci0656 PAN (proteasome-activating nucleotidase) regulatory ATPase of S. acidocaldarius (enzyme, UniProt F2Z6H9 1-396, looked up)
chain: MFGDVDSYKNRENNNNYDETLVKLLEEKIEALTKEIDKLRQDLNWYKTELEKLLAPPYIEATILDILPDGKVIVRSSSGPNLVVNVATNVDVSKLKPGMSVALSQRGSTIIDILPNREDIIVKSFELIEKPNIHYSDIGGLEDQINELREVVELPLKNKKLFEELGIEPPKGVLLYGPPGTGKTMLAKAVAAESNATFIHVVASEFAQKFVGEGARIVREVFELARKKAPSIIFIDELDAIAARRIDIGTSGEREIQRTLMQLLAEIDGFKALDNVKIIAATNRIDILDPAILRPGRFDRLIEVPLPDEKGRKEIFKIYLQRMRINENDKLNYDLIAQLTDGFSGADIKNVCTEAGYMAIREGRESIKFQDIIRAIDKIKKKNLRKAINTRTEKYL
notes: ORF amplified from genomic DNA; also called PAN ATPase; PAN regulatory ATPase; source: E. coli Rosetta (DE3) pLysS, purified (details in the Supplementary Methods)
With B1, the “stoichiometry N” value in series [1] worked out at 6.

B2: Saci0662ΔN, N-terminally truncated Saci0662 β-subunit (without the pro-peptide), His-tagged (domain or fragment, S. acidocaldarius, UniProt Q4JAY3 7-195, looked up)
chain: TAIGIKTKDGVVLAAERRLSYGDFVLSKSARKVFKLGRFGIAGAGIVGDIQTLTRIMNVEIKYYEMYNSRKISARAAAKLLSVILYQNKVLPYISELLFGGVDEDGPKLFILDPIGSLIEDSYAAVGSGARVAIGVLEAEYNESLTSEAAKELAIKSMKSAVERDVMSGDGIDILIINKNNIYEDFIKI
notes: source: E. coli Rosetta (DE3) pLysS, co-expressed with Saci0613 (with or without Saci0909ΔN); in heat-clarified lysate, and purified as part of the complex (Ni-NTA IMAC, size exclusion chromatography); not shown: His tag, C-terminal, kept
For the protein B2, the binding result in series [2] is listed as “binds”.

B3: Saci0613 20S proteasome α-subunit, untagged (natural protein, S. acidocaldarius, UniProt Q4JB24 1-242, looked up)
chain: MALGPAAMGYDRAITIFSPDGSLYQVDYAFEAVKRGWTTLGVKTKSGVVLLAEKRKATQLLDVDGIEKIFMLDDHVGCTFAGLASDGRILIDYARSQALQHRLIYDEPISIEYLTKVISDVKQAYTQHGGVRPFGVALIVGGIDKGKQPKLLMTEPSGQFMPYYAVAIGQGGYTATEYLEKNYKEDLDIQSTILLALRALMATLKPGEKLNYSSVEIGYADVDSGTFKKLTTEERSDLLQKI
notes: 20S proteasome α-subunit, S. acidocaldarius DSM639, Saci0613; also called Saci0613 α; 0613 α-subunit; source: E. coli Rosetta (DE3) pLysS, co-expressed with β-subunit(s); in heat-clarified lysate, and purified as part of the complex (Ni-NTA IMAC, size exclusion chromatography)
B3: the binding result in series [2] was “binds”.
